Common to all, as to test: SPR
The target in experiment [1] is human FcγRII (CD32), CD32B (human) (UniProt P31994).
Experiment [2] concerns the target human FcγRII (CD32), CD32A-131H (human) (UniProt P12318).
For experiment [3], the target named is human FcγRII (CD32), CD32A-131R (human).

Chain of UniProt P31994 (P31994 43-310): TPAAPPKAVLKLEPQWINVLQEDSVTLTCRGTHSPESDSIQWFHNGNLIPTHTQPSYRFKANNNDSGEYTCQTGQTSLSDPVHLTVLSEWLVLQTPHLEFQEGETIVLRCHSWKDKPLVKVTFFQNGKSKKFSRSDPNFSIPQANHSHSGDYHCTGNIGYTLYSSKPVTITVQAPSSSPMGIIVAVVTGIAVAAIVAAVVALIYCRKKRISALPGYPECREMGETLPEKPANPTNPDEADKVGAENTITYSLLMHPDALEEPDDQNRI
Chain of UniProt P12318 (P12318 34-317): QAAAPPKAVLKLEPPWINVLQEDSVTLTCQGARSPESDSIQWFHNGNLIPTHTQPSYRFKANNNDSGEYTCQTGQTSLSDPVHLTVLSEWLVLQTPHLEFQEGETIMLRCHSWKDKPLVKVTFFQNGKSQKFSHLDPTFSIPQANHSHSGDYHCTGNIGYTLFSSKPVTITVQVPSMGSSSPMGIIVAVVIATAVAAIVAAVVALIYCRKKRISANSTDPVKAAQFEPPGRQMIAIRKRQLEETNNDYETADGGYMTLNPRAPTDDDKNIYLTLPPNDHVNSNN

One may read the koff as the first-order rate constant of dissociation. A lower koff goes with slow dissociation. In general, kon refers to a measure of how fast the partners come together. In experiment [1], hu3F8 (IgG1) (antibody) yielded a Ka of 83700 M⁻¹, an off-rate (koff) of 0.341 s⁻¹ and a kon of 28600 M⁻¹ s⁻¹. In experiment [2], this molecule had a Ka of 631000 M⁻¹ and a koff of 0.427 s⁻¹.
For mouse 3F8 (IgG3) (antibody) the same measures were 5660 M⁻¹, 2.03 s⁻¹, 11500 M⁻¹ s⁻¹, 17300 M⁻¹ and 1.1 s⁻¹.

B1: mouse 3F8 (IgG3) (antibody, V domains shown)
VH: QVQLKESGPGLVAPSQSLSITCTVSGFSVTNYGVHWVRQPPGKGLEWLGVIWAGGITNYNSAFMSRLSISKDNSKSQVFLKMNSLQIDDTAMYYCASRGGHYGYALDYWGQGTSVTVSS
VL: SIVMTQTPKFLLVSAGDRVTITCKASQSVSNDVTWYQQKAGQSPKLLIYSASNRYSGVPDRFTGSGYGTAFTFTISTVQAEDLAVYFCQQDYSSFGGGTKLEIK
In experiment [3], B1 gave a Ka of 71500 M⁻¹, a koff of 0.363 s⁻¹ and a kon of 25900 M⁻¹ s⁻¹.

B2: hu3F8 (IgG1) (antibody, V domains shown)
VH: QVQLVESGPGVVQPGRSLRISCAVSGFSVTNYGVHWVRQPPGKGLEWLGVIWAGGITNYNSAFMSRLTISKDNSKNTVYLQMNSLRAEDTAMYYCASRGGHYGYALDYWGQGTLVTVSS
VL: EIVMTQTPATLSVSAGERVTITCKASQSVSNDVTWYQQKPGQAPRLLIYSASNRYSGVPARFSGSGYGTEFTFTISSVQSEDFAVYFCQQDYSSFGQGTKLEIK
On to B2, for which, in experiment [3], the Ka is 368000 M⁻¹, the koff is 0.406 s⁻¹ and the kon worked out at 149000 M⁻¹ s⁻¹.
